Patent US7964700B2, “Inhibitors of Taspase1 protease activity” (Dana-Farber Cancer Institute, Inc., priority 2003, dated 2011)
No end group written: not given here.

Molecular target: T1, rTaspase1 (Homo sapiens, UniProt Q9H6P5)
T1 construct: Full-length Taspase1 was cloned from 293T cell cDNA and inserted into the Myc/Flag doubly-tagged expression vector; made in house; host or cells: E. coli BL21(DE3)
T1 sequence (Q9H6P5 1-233): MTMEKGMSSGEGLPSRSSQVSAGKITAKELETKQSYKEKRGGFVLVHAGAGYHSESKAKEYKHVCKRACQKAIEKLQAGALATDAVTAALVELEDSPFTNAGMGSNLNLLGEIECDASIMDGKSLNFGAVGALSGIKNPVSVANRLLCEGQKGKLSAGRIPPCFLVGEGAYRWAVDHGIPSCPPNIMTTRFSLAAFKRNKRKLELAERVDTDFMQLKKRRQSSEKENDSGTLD
T1 sequence (Q9H6P5 234-420): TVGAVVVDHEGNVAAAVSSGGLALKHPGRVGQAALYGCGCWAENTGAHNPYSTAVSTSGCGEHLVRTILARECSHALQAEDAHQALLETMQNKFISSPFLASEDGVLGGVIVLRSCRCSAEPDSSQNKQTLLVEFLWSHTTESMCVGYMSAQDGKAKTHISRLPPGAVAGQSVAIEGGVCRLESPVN
Experiment: In vitro cleavage assay: labeled MLL substrate incubated with rTaspase1 and peptide inhibitor, SDS-PAGE and autoradiography
Assay type: biochemical
Conditions: for inhibitory effect on the rTaspase1 enzyme (MLL substrate cleavage) / dose response: effectiveness of polypeptide-aldehyde Taspase1 inhibitors: 5 ng rTaspase1, 20 minutes; for inhibitory effect on the rTaspase1 enzyme (MLL substrate cleavage): then labeled substrate 60 minutes at 37° C.; for dose response: effectiveness of polypeptide-aldehyde Taspase1 inhibitors: concentrations of FIGS. 11A-11C
Method: Polypeptides of varying length (i.e., 4 to 7 amino acids in length) were prepared to identify preferred lengths and sequences of polypeptide inhibitors of Taspase1. The polypeptide inhibitors were based on the amino acid sequence that includes a upstream portion of the CS2 cleavage site of MLL as well as a portion of the CS2 cleavage site (See FIG. 1B and FIG. 9). The peptide inhibitors were purchased from Tufts University Peptide Core Facility and AnaSpec Inc. of San Jose, Calif. 1 mM of each of the inhibitors was incubated with 5 ng of rTaspase1 for 20 minutes before adding labeled substrate for another 60 minutes at 37° C. The results were analyzed by SDS-PAGE followed by autoradiography.
In order to determine a preferred length of polypeptide inhibitors of Taspase1, dose responses were tested for a six amino acid polypeptide inhibitor (KISQLA) (SEQ ID NO:8) and a five amino acid polypeptide inhibitor (ISQLA) (SEQ ID NO:7). The polypeptides were incubated at the concentrations depicted in FIG. 10 with 5 ng of rTaspase1 for 20 minutes before adding labeled MLL substrate for another 60 minutes at 37° C. The results were analyzed by SDS-PAGE followed by autoradiography.
Three modified polypeptide inhibitors were prepared wherein the carboxy terminals of the polypeptides were replaced with an aldehyde (SQLA-aldehyde (SEQ ID NO:17), SQLD-aldehyde (SEQ ID NO:9), and KISQLD-aldehyde (SEQ ID NO:11)). Chemical syntheses of these modified polypeptides is well known to one of skill in the art, and the modified polypeptides are also are available commercially at AnaSpec Inc. of San Jose, Calif. The polypeptides were incubated in the concentrations depicted in FIGS. 11A-11C with 5 ng of rTaspase1 for 20 minutes before adding labeled MLL substrate for another 60 minutes at 37° C. The results were analyzed by SDS-PAGE followed by autoradiography. […] Accordingly, the modified polypeptides can keep the active site of the enzyme occupied for a greater length of time, blocking entrance of the MLL substrate from entering the active site as required for cleavage. […] (See FIG. 11C.).
^35S-methionine labeled MLL substrate was incubated with 2 μl of indicated subcellular fractions or specified amounts of rTaspase1 in cleavage buffer (100 mM HEPES [pH 7.9], 5 mM MgCl2, 20 mM KCl, 5 mM DTT, and 10% sucrose) for 1 hour at 37° C. or indicated periods of time. Protease inhibitors utilized include 8.5 μM Phosphoramidon, 100 μM TLCK, 100 μM TPCK, 5 mM Iodoacetamide, 5 mM N-Ethylmaleimide, 0.3 μM Aprotinin, 100 μM Leupeptin, 1 μM Pepstatin, 1× Complete protease inhibitor cocktail (Roche), 100 μM Antipain, 100 μM APMSF, 10 μM Bestatin, 25 μM ALLN, 100 μM Chymostatin, […] E-64, 5 mM EDTA, 1 mM PMSF, 1 mM EGTA, 50 μM BAF (Boc-Aspartyl-FMK), and 50 μM z-VAD (z-VAD-FMK).

[1] = then labeled MLL substrate 60 minutes at 37° C.

Substance | inhibitory effect on the rTaspase1 enzyme (MLL substrate cleavage) (1 mM inhibitor, FIG. 9) | further results
Ile-Ser-Gln-Leu-Ala (ISQLA; listed as Homo sapiens) |  | dose response: effectiveness as Taspase1 inhibitor, five versus six amino acid polypeptide (concentrations of FIG. 10, 5 ng rTaspase1, 20 minutes, then labeled MLL substrate 60 minutes at 37° C.): more effective inhibitor at lower concentrations than the corresponding six amino acid polypeptide
KISQLA | inhibitory effect was observed | 
KISQLD: six amino acid polypeptide based on the sequence upstream of the CS2 cleavage site of MLL (listed as Homo sapiens) | little inhibitory effect | 
Lys-Ile-Ser-Gln-Leu-Asp-aldehyde (KISQLD-aldehyde) |  | dose response: effectiveness of polypeptide-aldehyde Taspase1 inhibitors [1]: more effective than both of the four amino acid aldehyde
SQLD: four amino acid polypeptide based on the sequence upstream of the CS2 cleavage site of MLL (listed as Homo sapiens) | little inhibitory effect | 
Ser-Gln-Leu-Asp-aldehyde (SQLD-aldehyde) |  | dose response: effectiveness of polypeptide-aldehyde Taspase1 inhibitors [1]: more effective inhibitor than the SQLA-aldehyde

Continued, in another order:

inhibitory effect on the rTaspase1 enzyme (MLL substrate cleavage) (1 mM inhibitor, FIG. 9) | Substance | further results
little inhibitory effect | Ile-Ser-Gln-Leu-Asp (ISQLD; listed as Homo sapiens) | 
inhibitory effect was observed | KISQA: polypeptide with P1 alanine and omission of the leucine residue at P2 (listed as Homo sapiens) | inhibition of rTaspase1 relative to ISQLA (P2 leucine omitted) (1 mM inhibitor, 5 ng rTaspase1, FIG. 9): significantly decreased inhibition
inhibitory effect was observed | KISdQLA: polypeptide where the P1 aspartate residue was substituted for an alanine residue (KISDQLA; not fully specified (residue 4); printed as KISdQLA; listed as Homo sapiens) | 
